The assay addresses IbcK (isobutylene catabolism gene K product), epoxide hydrolase from Mycolicibacterium sp. ELW1 (Mycolicibacterium sp. ELW1). Description: SEC; Biosep-SEC S3000 column on UPLC, 10 mM Tris-HCl pH 7, 150 mM NaCl, 0.3 mL/min, 10 µL injected; two peaks, dimer to monomers.

For one substance, stoichiometry N results are on record in publication PMC12442371.

For “IbcK (isobutylene catabolism gene K product), epoxide hydrolase from Mycolicibacterium sp. ELW1 (enzyme)”, the stoichiometry N is 2.
